Values quoted from earlier work as cited in publication PMC5964610.

Molecular target: FER (Arabidopsis thaliana) (UniProt Q9SCZ4)
Sequence of UniProt Q9SCZ4 (Q9SCZ4 28-447): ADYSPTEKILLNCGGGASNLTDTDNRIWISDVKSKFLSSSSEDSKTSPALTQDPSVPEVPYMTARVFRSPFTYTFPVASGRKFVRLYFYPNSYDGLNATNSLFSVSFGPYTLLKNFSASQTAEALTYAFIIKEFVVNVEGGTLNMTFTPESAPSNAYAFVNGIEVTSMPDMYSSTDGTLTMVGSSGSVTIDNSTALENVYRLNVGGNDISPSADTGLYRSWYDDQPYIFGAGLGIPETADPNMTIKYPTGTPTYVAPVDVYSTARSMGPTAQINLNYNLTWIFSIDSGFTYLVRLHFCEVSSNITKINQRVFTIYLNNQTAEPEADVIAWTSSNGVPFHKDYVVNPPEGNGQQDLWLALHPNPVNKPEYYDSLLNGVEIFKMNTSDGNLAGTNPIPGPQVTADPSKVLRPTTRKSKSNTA

Kd: 310 nM
Substance: RALF23 (from UniProt Q9LUS7)
